Source: the supplement of paper PMC7877785
± gives the uncertainty stated by the source.

Assay: self-splicing fitness, log relative to wild type (ln ratio); higher = more splicing; Tetrahymena group I intron in knt gene, E. coli kanamycin selection, DiMSum; sequences stand for … in CUCUCU…GGAGGGAAAAGUUAUCAGGCAUGCACCUGGUAGCUAGUCUUUAAACCAAUAGAUUGCAUCGGUUUAAAAGGCAAGACCGUCAAAUUGCGGGAAAGGGGUCAACAGCCGUUCAGUACCAAGUCUCAGGGGAAACUUUGAGAUGGCCUUGCAAAGGGUAUGGUAAUAAGCUGACGGACAUGGUCCUAACCACGCAGCCAAGUCCUAAGUCAACAGAUCUUCUGUUGAUAUGGAUGCAGUUCACAGACUAAAUGUCGGUCGGGGAAGAUGUAUUCUUCUCAUAAGAUAUAGUCGGACCUCUCCUUAAUGGGAGCUAGCGGAUGAAGUGAUGCAACACUGGAGCCGCUGGGAACUAAUUUGUAUGCGAAAGUAUAUUGAUUAGUUUUGGAGUACUCGUGGUCG
In short: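 The eight P1ex-region nucleotides of an intron in the knt kanamycin-resistance gene on pET-22b(+) were all randomised and the library put into E. coli BL21(DE3). Six replicate transformations were grown overnight at 37°C or 30°C on LB agar with or without 25 μg/mL kanamycin, together with 100 μg/mL carbenicillin, 50 μM IPTG and 0.2% rhamnose. Colonies were pooled and amplicon-sequenced on an Illumina HiSeq 2500. Fitness from DiMSum is the error-weighted combination of wild-type-normalised replicate fold changes, kanamycin over none.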

Sequence	self-splicing fitness (ln) (30 °C)	self-splicing fitness (ln) (37 °C)
CGUGAGCAAUAUUACGGUCG	-1.17 ± 0.083	-0.688 ± 0.13
AUACAGCAAUAUUACGGCCA	-0.834 ± 0.11	-0.783 ± 0.1
AUGAAGCAAUAUUACGCAAC	-1.28 ± 0.16	-1.13 ± 0.16
UAUAAGCAAUAUUACGUACC	-2.51 ± 0.19	-1.2 ± 0.16
CAGUAGCAAUAUUACGGAUA	-1.58 ± 0.32	-2.79 ± 0.38
UGCAAGCAAUAUUACGCUCG	-3.78 ± 0.27	-1.83 ± 0.2
UAUUAGCAAUAUUACGACUG	-0.225 ± 0.16	0.804 ± 0.21
CUACAGCAAUAUUACGGUUC	-2.93 ± 0.089	-1.23 ± 0.1
ACCCAGCAAUAUUACGUAAU	-0.676 ± 0.035	0.426 ± 0.061
GCUGAGCAAUAUUACGACGA	–	-0.876 ± 0.39
GGCAAGCAAUAUUACGCUCG	-1.66 ± 0.12	-1.4 ± 0.19
AGGCAGCAAUAUUACGCCCA	-0.718 ± 0.094	-0.205 ± 0.15
CUAGAGCAAUAUUACGUAUG	-0.333 ± 0.084	0.333 ± 0.11
CCCUAGCAAUAUUACGGCAC	-3.42 ± 0.21	-1.5 ± 0.2
ACGGAGCAAUAUUACGGCUC	-3.6 ± 0.3	-2.87 ± 0.48
GUUAAGCAAUAUUACGAAAC	-3 ± 0.48	-2.83 ± 0.48
GUUUAGCAAUAUUACGGCUA	-1.45 ± 0.33	-1.68 ± 0.31
ACCGAGCAAUAUUACGUGCA	-2.45 ± 0.13	-1.79 ± 0.12
UUGCAGCAAUAUUACGGCUU	0.193 ± 0.069	0.35 ± 0.095
CAAUAGCAAUAUUACGAACU	-3.14 ± 0.27	-1.83 ± 0.18
UGGAAGCAAUAUUACGGAAA	-1.8 ± 0.41	-1.43 ± 0.4
GGCAAGCAAUAUUACGAAGG	-3.36 ± 0.17	-2.05 ± 0.19
CAAUAGCAAUAUUACGUCCA	-2.87 ± 0.29	-2.25 ± 0.25
GUGUAGCAAUAUUACGUCAG	-3.06 ± 0.26	-2.53 ± 0.29

Sequence	self-splicing fitness (ln) (30 °C)	self-splicing fitness (ln) (37 °C)
CACAAGCAAUAUUACGCCAG	-1 ± 0.08	-1.09 ± 0.11
AUACAGCAAUAUUACGAUUC	-2.06 ± 0.1	-0.118 ± 0.096
CCUAAGCAAUAUUACGGAGU	-3 ± 0.17	-2.55 ± 0.17
CUAAAGCAAUAUUACGUCGU	-4.09 ± 0.2	-2.88 ± 0.22
GGAAAGCAAUAUUACGAUGU	-1.69 ± 0.094	-0.262 ± 0.13
UCGUAGCAAUAUUACGUAUA	-2.92 ± 0.31	-1.01 ± 0.28
CUUAAGCAAUAUUACGACGG	-0.508 ± 0.1	-0.291 ± 0.13
GUCUAGCAAUAUUACGGAGG	-3.98 ± 0.3	-1.59 ± 0.18
CGUAAGCAAUAUUACGUUAU	-4.56 ± 0.26	-1.45 ± 0.19
GAGGAGCAAUAUUACGUAGA	-4 ± 0.24	-2.22 ± 0.19
CUCGAGCAAUAUUACGGUGC	-2.95 ± 0.25	-2.88 ± 0.31
AUAAAGCAAUAUUACGUGCG	-0.493 ± 0.083	0.137 ± 0.1
CCCAAGCAAUAUUACGAUUU	-2.62 ± 0.13	-2.21 ± 0.17
UAAUAGCAAUAUUACGACAG	-2.3 ± 0.19	-0.262 ± 0.17
UGACAGCAAUAUUACGUGCA	-1.06 ± 0.079	0.394 ± 0.11
ACCGAGCAAUAUUACGGUGG	-2.91 ± 0.13	-3.14 ± 0.29
GGAAAGCAAUAUUACGAUCG	-0.227 ± 0.084	-0.145 ± 0.12
GACUAGCAAUAUUACGCUCU	-1.87 ± 0.12	-0.12 ± 0.14
AGAUAGCAAUAUUACGAGAU	-3.02 ± 0.25	-1.69 ± 0.27
GGAUAGCAAUAUUACGCUAA	-2.07 ± 0.16	-1.03 ± 0.22
GCGCAGCAAUAUUACGUCCU	-0.435 ± 0.12	0.126 ± 0.14
AUAAAGCAAUAUUACGUGAA	-1.39 ± 0.094	-0.724 ± 0.12
UUCUAGCAAUAUUACGAUCG	–	-2.02 ± 0.28
UCCUAGCAAUAUUACGUCCG	-3.98 ± 0.25	-3.81 ± 0.34

Sequence	self-splicing fitness (ln) (30 °C)	self-splicing fitness (ln) (37 °C)
ACCAAGCAAUAUUACGUUAC	-3.66 ± 0.2	-1.76 ± 0.14
CGCGAGCAAUAUUACGGUUA	-2.88 ± 0.26	-0.646 ± 0.18
AGCGAGCAAUAUUACGUGAU	-2.98 ± 0.21	-3.09 ± 0.35
AGAAAGCAAUAUUACGAACA	-0.534 ± 0.16	-0.288 ± 0.16
AAAAAGCAAUAUUACGGUCG	-0.302 ± 0.062	0.273 ± 0.083
CGCAAGCAAUAUUACGAACC	-2.01 ± 0.19	-0.722 ± 0.19
UCAAAGCAAUAUUACGAGCA	-1.07 ± 0.15	-0.556 ± 0.15
ACACAGCAAUAUUACGGACA	-1.63 ± 0.095	-1.04 ± 0.089
UAUAAGCAAUAUUACGCUAC	-3.61 ± 0.21	-1.32 ± 0.17
GGCAAGCAAUAUUACGCCAC	-3.87 ± 0.43	–
GAAAAGCAAUAUUACGCACC	-0.811 ± 0.28	-0.377 ± 0.31
GGUCAGCAAUAUUACGGCGC	-0.127 ± 0.12	-0.0173 ± 0.14
UGAGAGCAAUAUUACGCGCG	-2.15 ± 0.2	-1.23 ± 0.24
ACACAGCAAUAUUACGCAUA	-2.45 ± 0.08	-1.49 ± 0.072
ACCCAGCAAUAUUACGGAUA	-0.912 ± 0.08	-0.448 ± 0.083
UCUUAGCAAUAUUACGUUUC	-3.68 ± 0.24	-2.8 ± 0.29
GGACAGCAAUAUUACGCCCU	-3.25 ± 0.2	-0.306 ± 0.14
ACUCAGCAAUAUUACGCCAU	-3.02 ± 0.17	-2.28 ± 0.16
CCUAAGCAAUAUUACGUGGU	-4.74 ± 0.32	-3.13 ± 0.25
UUUAAGCAAUAUUACGGGUC	-3.19 ± 0.35	-2.25 ± 0.35
AUGUAGCAAUAUUACGAUAC	-3.33 ± 0.28	-1.82 ± 0.21
GGGCAGCAAUAUUACGGUGC	-2.21 ± 0.13	-1.8 ± 0.089
CUAAAGCAAUAUUACGCCUU	-3.79 ± 0.26	-1.25 ± 0.22
UCUUAGCAAUAUUACGCCUG	-2.25 ± 0.24	-1.51 ± 0.27

Sequence	self-splicing fitness (ln) (30 °C)	self-splicing fitness (ln) (37 °C)
AUAUAGCAAUAUUACGGAUA	-2.76 ± 0.31	-1.63 ± 0.3
AGCGAGCAAUAUUACGAGGA	-2.36 ± 0.15	-2.6 ± 0.22
UUCCAGCAAUAUUACGCCUU	-2.28 ± 0.1	-0.957 ± 0.096
UGCGAGCAAUAUUACGUACG	-3.12 ± 0.21	-2.49 ± 0.22
AUCCAGCAAUAUUACGGCGC	-0.203 ± 0.1	-0.114 ± 0.14
CUUCAGCAAUAUUACGGACU	-2.26 ± 0.16	-2.66 ± 0.27
CGUGAGCAAUAUUACGACUA	-2.94 ± 0.47	-1.94 ± 0.36
ACUUAGCAAUAUUACGAAAA	-2.79 ± 0.26	-2.01 ± 0.27
CGUAAGCAAUAUUACGUUCG	-0.989 ± 0.056	-0.453 ± 0.078
AGUAAGCAAUAUUACGGUUG	-3.09 ± 0.23	-2.51 ± 0.25
UGAGAGCAAUAUUACGAAGU	-3.04 ± 0.26	-2.55 ± 0.31
AUCAAGCAAUAUUACGAGUC	-3.08 ± 0.23	-2.19 ± 0.24
GAAUAGCAAUAUUACGCGGC	-1.42 ± 0.19	-2.38 ± 0.3
GAUUAGCAAUAUUACGUGUG	-2.13 ± 0.077	-1.61 ± 0.075
UGUCAGCAAUAUUACGCCGG	-2.61 ± 0.5	-0.725 ± 0.36
UGACAGCAAUAUUACGUGCU	-4.32 ± 0.24	-1.04 ± 0.11
GAUUAGCAAUAUUACGGGAU	-2.76 ± 0.2	-1.14 ± 0.18
GCGCAGCAAUAUUACGGCAC	-0.436 ± 0.11	-0.634 ± 0.13
CAAAAGCAAUAUUACGGGCU	-3.65 ± 0.23	-2.57 ± 0.21
GAUCAGCAAUAUUACGUACU	-0.188 ± 0.067	-0.441 ± 0.074
AUCCAGCAAUAUUACGUUAC	-3.89 ± 0.24	-2.59 ± 0.22
CAACAGCAAUAUUACGGAUC	-3.08 ± 0.12	-1.89 ± 0.12
GGGUAGCAAUAUUACGUGUG	-1.65 ± 0.11	-1.24 ± 0.12
GUAUAGCAAUAUUACGCUCU	-1.76 ± 0.13	-1.23 ± 0.15
